Source: patent US20250101135A1 (Hoffmann-La Roche, published 2025)
Substitutions are numbered along the chain they refer to. Names and notes keep the numbering of the source.

T1: huCD19 ECD (human, UniProt P15391 20-291)
T1 construct: extracellular domain
T1 sequence (looked up): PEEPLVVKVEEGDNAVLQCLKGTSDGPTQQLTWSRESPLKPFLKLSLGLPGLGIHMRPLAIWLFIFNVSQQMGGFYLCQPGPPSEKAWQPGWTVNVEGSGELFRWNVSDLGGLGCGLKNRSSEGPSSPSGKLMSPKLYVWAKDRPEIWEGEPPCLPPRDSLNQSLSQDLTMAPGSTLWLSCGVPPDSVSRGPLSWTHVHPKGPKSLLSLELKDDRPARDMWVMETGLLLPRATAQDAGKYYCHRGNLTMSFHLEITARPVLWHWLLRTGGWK

T2: human CD19 (recombinant, form not given) (human, UniProt P15391 20-291, limits assumed)
T2 construct: also called huCD19
T2 sequence (looked up): T1 sequence (looked up)

B1: FAP-targeted murine 4-1BB ligand trimer-containing Fc fusion antigen binding molecule Construct M.1 (Fc fusion)
chain 1: RTEPRPALTITTSPNLGTRENNADQVTPVSHIGSPNTTQQGSPVFAKLLAKNQASLSNTTLNWHSQDGAGSSYLSQGLRYEEDKKELVVDSPGLYYVFLELKLSPTFTNTGHKVQGWVSLVLQAKPQVDDFDNLALTVELFPSSMENKLVDRSWSQLLLLKAGHRLSVGLRAYLHGAQDAYRDWELSYPNTTSFGLFLVKPDNPWEGGGGSGGGGSRTEPRPALTITTSPNLGTRENNADQVTPVSHIGSPNTTQQGSPVFAKLLAKNQASLSNTTLNWHSQDGAGSSYLSQGLRYEEDKKELVVDSPGLYYVFLELKLSPTFTNTGHKVQGWVSLVLQAKPQVDDFDNLALTVELFPSSMENKLVDRSWSQLLLLKAGHRLSVGLRAYLHGAQDAYRDWELSYPNTTSFGLFLVKPDNPWEGGGGSGGGGSRADAAPTVSIFPPSSEQLTSGGASVVCFLNNFYPKDINVKWKIDGSERQNGVLNSWTDQDSKDSTYSMSSTLTLTKDEYERHNSYTCEATHKTSTSPIVKSFNRNECVPRDCGCKPCICTVPEVSSVFIFPPKPKDVLTITLTPKVTCVVVAISKDDPEVQFSWFVDDVEVHTAQTKPREEQINSTFRSVSELPIMHQDWLNGKEFKCRVNSAAFGAPIEKTISKTKGRPKAPQVYTIPPPKEQMAKDKVSLTCMITNFFPEDITVEWQWNGQPAENYDNTQPIMDTDGSYFVYSDLNVQKSNWEAGNTFTCSVLHEGLHNHHTEKSLSHSPGK
chain 2: RTEPRPALTITTSPNLGTRENNADQVTPVSHIGSPNTTQQGSPVFAKLLAKNQASLSNTTLNWHSQDGAGSSYLSQGLRYEEDKKELVVDSPGLYYVFLELKLSPTFTNTGHKVQGWVSLVLQAKPQVDDFDNLALTVELFPSSMENKLVDRSWSQLLLLKAGHRLSVGLRAYLHGAQDAYRDWELSYPNTTSFGLFLVKPDNPWEGGGGSGGGGSAKTTPPSVYPLAPGSAAQTNSMVTLGCLVKGYFPEPVTVTWNSGSLSSGVHTFPAVLQSDLYTLSSSVTVPSSTWPSQTVTCNVAHPASSTKVDKKIVPRDC
heavy: EVQLLESGGGLVQPGGSLRLSCAASGFTFSSHAMSWVRQAPGKGLEWVSAIWASGEQYYADSVKGRFTISRDNSKNTLYLQMNSLRAEDTAVYYCAKGWLGNFDYWGQGTLVTVSSAKTTPPSVYPLAPGSAAQTNSMVTLGCLVKGYFPEPVTVTWNSGSLSSGVHTFPAVLQSDLYTLSSSVTVPSSTWPSQTVTCNVAHPASSTKVDKKIVPRDCGCKPCICTVPEVSSVFIFPPKPKDVLTITLTPKVTCVVVAISKDDPEVQFSWFVDDVEVHTAQTKPREEQINSTFRSVSELPIMHQDWLNGKEFKCRVNSAAFGAPIEKTISKTKGRPKAPQVYTIPPPKKQMAKDKVSLTCMITNFFPEDITVEWQWNGQPAENYKNTQPIMKTDGSYFVYSKLNVQKSNWEAGNTFTCSVLHEGLHNHHTEKSLSHSPGK
light: EIVLTQSPGTLSLSPGERATLSCRASQSVSRSYLAWYQQKPGQAPRLLIIGASTRATGIPDRFSGSGSGTDFTLTISRLEPEDFAVYYCQQGQVIPPTFGQGTKVEIKRADAAPTVSIFPPSSEQLTSGGASVVCFLNNFYPKDINVKWKIDGSERQNGVLNSWTDQDSKDSTYSMSSTLTLTKDEYERHNSYTCEATHKTSTSPIVKSFNRNEC
notes: murine IgG1 DD/KK, DAPG; anti-FAP 28H1
B2: FAP-targeted murine 4-1BB ligand trimer-containing Fc fusion antigen binding molecule Construct M.2 (Fc fusion)
chain 1: B1 chain 1 with S34C, S143C, S250C, S359C
chain 2: B1 chain 2 with S34C, S143C
heavy: B1 heavy
light: B1 light
B3: humanized anti-human CD19 antibody var.5 (S27eP), named clone 8B8-018 (antibody, V domains shown)
VH: QVQLVQSGAEVKKPGASVKVSCKASGYTFTDYIMHWVRQAPGQGLEWMGYINPYNDGSKYTEKFQGRVTMTSDTSISTAYMELSRLRSDDTAVYYCARGTYYYGSALFDYWGQGTTVTVSS
VL: DIVMTQTPLSLSVTPGQPASISCKSSQSLENPNGNTYLNWYLQKPGQSPQLLIYRVSKRFSGVPDRFSGSGSGTDFTLKISRVEAEDVGVYYCLQLTHVPYTFGQGTKLEIK
notes: 5 is named clone 8B8-018; also called variant 5
B4: humanized anti-human CD19 antibody var.9 (S27eP/N28S) (antibody, V domains shown)
VH: B3 VH
VL: B3 VL with N33S
notes: also called variant 9
B5: wild-type humanized anti-human CD19 antibody (var.0) (antibody, V domains shown)
VH: B3 VH with Q65N, R67K, V68A
VL: B3 VL with P32S
notes: humanized 8B8; also called variant 0; wt
B6: anti-CD19 clone 8B8 (parental) in P329GLALA human IgG1 format (antibody, V domains shown)
VH: EVQLQQSGPELVKPGASVKMACKASGYTFTDYIMHWVKQKTGQGLEWIGYINPYNDGSKYTEKFNGKATLTSDKSSITAYMELSSLTSEDSAVYYCARGTYYYGSALFDYWGQGTTLTVSS
VL: DAVMTQTPLSLPVSLGDQASISCRSSQSLENSNGNTYLNWYLQKPGQSPQLLIYRVSKRFSGVLDRFSGSGSGTDFTLKISRVEAEDLGVYFCLQLTHVPYTFGGGTKLEIKR
notes: also called Parental 8B8
B7: anti-CD19 clone 8B8-5D08 in P329GLALA human IgG1 format (antibody, V domains shown)
VH: B3 VH with A106E
VL: DIVMTQTPLSLSVTPGQPASISCKSSQSLETSTGNTYLNWYLQKPGQSPQLLIYRVSKRFSGVPDRFSGSGSGTDFTLKISRVEAEDVGVYYCLQLTHEPYTFGQGTKLEIKR
B8: anti-CD19 clone 8B8-5H09 in P329GLALA human IgG1 format (antibody, V domains shown)
VH: B3 VH
VL: B7 VL with T31S, T97I, H98D, E99Y, Y101V
B9: anti-CD19 clone 8B8-2B11 in P329GLALA human IgG1 format (antibody, V domains shown)
VH: B3 VH with S105P, A106Q
VL: B7 VL with N35T, T97L, H98E, E99D
B10: anti-CD19 clone 8B8-7H07 in P329GLALA human IgG1 format (antibody, V domains shown)
VH: B3 VH with A106E
VL: B7 VL with L96A, E99I
B11: anti-CD19 clone 8B8-5A07 in P329GLALA human IgG1 format (antibody, V domains shown)
VH: B3 VH
VL: B7 VL with L96P, T97G, E99Y, Y101G
B12: anti-CD19 clone 8B8-2B03 in P329GLALA human IgG1 format (antibody, V domains shown)
VH: B3 VH with M34T, S105P, A106D
VL: B7 VL with E99V
notes: light chain holds an X
B13: anti-CD19 clone 8B8-5B08 in P329GLALA human IgG1 format (antibody, V domains shown)
VH: B3 VH with S105P, A106Q
VL: B7 VL with T97D, H98S, E99Y, Y101N
B14: parental anti-CD19 clone 8B8, Fab in bacterial supernatant (Fab, V domains shown)
VH: B3 VH
VL: B3 VL
notes: conflicting; also called Parental 8B8; parental humanized clone 8B8
B15: anti-CD19 clone 8B8-7H07, Fab in bacterial supernatant (Fab, V domains shown)
VH: B3 VH with A106E
VL: B3 VL with N31T, P32S, N33T, L96A, V99I
B16: anti-CD19 clone 8B8-2B11, Fab in bacterial supernatant (Fab, V domains shown)
VH: B3 VH with S105P, A106Q
VL: B3 VL with N31T, P32S, N33T, N35T, T97L, H98E, V99D
B17: anti-CD19 clone 8B8-5H09, Fab in bacterial supernatant (Fab, V domains shown)
VH: B3 VH
VL: B3 VL with N31S, P32S, N33T, T97I, H98D, V99Y, Y101V
B18: anti-CD19 clone 8B8-2B03, Fab in bacterial supernatant (Fab, V domains shown)
VH: B3 VH with M34T, S105P, A106D
VL: B3 VL with N31T, P32S, N33T
notes: printed VL holds an X
B19: anti-CD19 clone 8B8-5D08, Fab in bacterial supernatant (Fab, V domains shown)
VH: B3 VH with A106E
VL: B3 VL with N31T, P32S, N33T, V99E

target: T3, human fibroblast activation protein (FAP) on cells (human, UniProt Q12884 1-760); assay: flow cytometry on FAP+ WM-266-4 cells
T3 construct: also called human FAP; huFAP

Row | EC50 | Binder
1 | 5.14 nM | B1
2 | 5.63 nM | B2

target: T1, huCD19 ECD; assay: binding to CD19 ECD, assay not described

Row | EC50 | Binder
3 | 0.084 µg/mL | B3
4 | 0.089 µg/mL | B4

target: T4, cyCD19 ECD (cynomolgus); assay: binding to CD19 ECD, assay not described
T4 construct: extracellular domain; also called cynomolgus CD19

Row | EC50 | Binder
5 | 0.313 µg/mL | B5
6 | 0.255 µg/mL | B3
7 | 0.435 µg/mL | B4

target: T5, monomeric human CD19 antigen Fc(kih) fusion molecule (human, UniProt P0DOX5 223-449 = IgG part); assay: SPR ProteOn XPR36, IgG from HEK supernatant captured via anti-human Fab, monomeric CD19-Fc analyte, 1:1 Langmuir
T5 construct: also called monomeric CD19-Fc; human CD19-Fc(kih)

Row | Kd | koff | kon | Binder
8 | 2.36 nM | 0.000134 s⁻¹ | 56600 M⁻¹ s⁻¹ | B6
9 | 0.951 nM | 8.44e-05 s⁻¹ | 88800 M⁻¹ s⁻¹ | B7
10 | 0.189 nM | 1.5e-05 s⁻¹ | 79100 M⁻¹ s⁻¹ | B8
11 | 0.495 nM | 3.14e-05 s⁻¹ | 63400 M⁻¹ s⁻¹ | B9
12 | 0.747 nM | 5.57e-05 s⁻¹ | 74500 M⁻¹ s⁻¹ | B10
13 | 0.44 nM | 3.07e-05 s⁻¹ | 69800 M⁻¹ s⁻¹ | B11
14 | 0.831 nM | 5e-05 s⁻¹ | 60200 M⁻¹ s⁻¹ | B12
15 | 0.772 nM | 5.26e-05 s⁻¹ | 68100 M⁻¹ s⁻¹ | B13

target: T3, human fibroblast activation protein …; assay: flow cytometry on FAP+ MV-3 cells

Row | EC50 | Binder
16 | 7.26 nM | B1
17 | 6.9 nM | B2

target: T6, mouse 4-1BB on activated mouse splenocytes (mouse, UniProt P20334 24-256); assay: flow cytometry on activated mouse splenocytes, 4-1BB+ CD8+ T cells
T6 construct: whole, on cells; also called murine 4-1BB
T6 sequence (P20334 24-256): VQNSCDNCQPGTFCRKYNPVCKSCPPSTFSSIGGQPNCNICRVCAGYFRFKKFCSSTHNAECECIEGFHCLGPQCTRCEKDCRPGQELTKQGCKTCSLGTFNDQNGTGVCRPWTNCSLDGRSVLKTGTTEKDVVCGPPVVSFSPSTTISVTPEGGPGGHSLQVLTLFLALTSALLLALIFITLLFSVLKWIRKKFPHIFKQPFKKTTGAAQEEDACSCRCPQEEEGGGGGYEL

Row | EC50 | Binder
18 | 0.87 nM | B1
19 | 0.54 nM | B2

target: T2, human CD19 (recombinant, form not …); assay: relative binding after incubation, method not described

Row | human CD19 binding after pH 6.0 incubation [%] | human CD19 binding after pH 7.4 incubation [%] | Binder
20 | 99% | 95% | B3
21 | 87% |  | B4

target: T2, human CD19 (recombinant, form not …); assay: BIACORE (SPR), format not described

Row | Kd | t1/2 | Binder
22 | 6 nM | 43.6 min | B3
23 | 45 nM | 4 min | B4

target: T5, monomeric human CD19 antigen Fc(kih) …; assay: SPR ProteOn XPR36, Fab from bacterial supernatant captured via anti-human Fab, monomeric CD19-Fc analyte

Row | koff | Binder
24 | 0.000301 s⁻¹ | B14
25 | 5.75e-05 s⁻¹ | B15
26 | 4.37e-06 s⁻¹ | B16
27 | 0.000258 s⁻¹ | B17
28 | 3.24e-05 s⁻¹ | B18
29 | 0.000195 s⁻¹ | B19

target: T6, mouse 4-1BB on activated mouse …; assay: flow cytometry on activated mouse splenocytes, 4-1BB+ CD4+ T cells

Row | EC50 | Binder
30 | 0.52 nM | B1
31 | 0.42 nM | B2
